Publication PMC11445476, “CHC22 clathrin recruitment to the early secretory pathway requires two-site interaction with SNX5 and p115” (The EMBO Journal, 2024)
One block for each binder: values may come before it.

B1: His-SUMO-tagged CHC22 terminal domain, wild-type (domain or fragment, human, UniProt P53675 1-364, looked up)
chain: MAQILPVRFQEHFQLQNLGINPANIGFSTLTMESDKFICIREKVGEQAQVTIIDMSDPMAPIRRPISAESAIMNPASKVIALKAGKTLQIFNIEMKSKMKAHTMAEEVIFWKWVSVNTVALVTETAVYHWSMEGDSQPMKMFDRHTSLVGCQVIHYRTDEYQKWLLLVGISAQQNRVVGAMQLYSVDRKVSQPIEGHAAAFAEFKMEGNAKPATLFCFAVRNPTGGKLHIIEVGQPAAGNQPFVKKAVDVFFPPEAQNDFPVAMQIGAKHGVIYLITKYGYLHLYDLESGVCICMNRISADTIFVTAPHKPTSGIIGVNKKGQVLSVCVEEDNIVNYATNVLQNPDLGLRLAVRSNLAGAEKLF
notes: CHC22 clathrin heavy chain, N-terminal domain (TD), residues 1-364; also called CHC22 TD; His-bdSUMO-CHC22 TD; source: E. coli Rosetta 2 pLysS, purified (HisTrap, size exclusion); not shown: His, N-terminal, kept; bdSUMO, N-terminal, kept
B4: full-length GST-SNX5 wild-type (natural protein, human, UniProt Q9Y5X3 1-404, looked up)
chain: MAAVPELLQQQEEDRSKLRSVSVDLNVDPSLQIDIPDALSERDKVKFTVHTKTTLPTFQSPEFSVTRQHEDFVWLHDTLIETTDYAGLIIPPAPTKPDFDGPREKMQKLGEGEGSMTKEEFAKMKQELEAEYLAVFKKTVSSHEVFLQRLSSHPVLSKDRNFHVFLEYDQDLSVRRKNTKEMFGGFFKSVVKSADEVLFTGVKEVDDFFEQEKNFLINYYNRIKDSCVKADKMTRSHKNVADDYIHTAACLHSLALEEPTVIKKYLLKVAELFEKLRKVEGRVSSDEDLKLTELLRYYMLNIEAAKDLLYRRTKALIDYENSNKALDKARLKSKDVKLAEAHQQECCQKFEQLSESAKEELINFKRKRVAAFRKNLIEMSELEIKHARNNVSLLQSCIDLFKNN
notes: sorting nexin 5, human, full-length, residues 1-404, amplified from human cDNA of the GM25256 cell line, in pGEX3; also called GST-SNX5 WT; WT; source: E. coli Rosetta 2 pLysS, purified (GSTrap, size exclusion); not shown: GST, N-terminal, kept

Assays:
Details in all cases: both partners purified
full-length GST-p115 = target: T1, full-length GST-p115 (UniProt O60763 1-962); test: pull-down; GST, GST-GGA2-HE or GST-p115 on glutathione beads, 12.5 µg purified His-bdSUMO-CHC22 TD (WT or Chim) in 250 µl CHC22 PD buffer for 45 min, immunoblot
T1 construct: p115, full-length, residues 1-962, amplified from pIY119 into pGEX3; not shown: GST, N-terminal, kept
T1 sequence (looked up): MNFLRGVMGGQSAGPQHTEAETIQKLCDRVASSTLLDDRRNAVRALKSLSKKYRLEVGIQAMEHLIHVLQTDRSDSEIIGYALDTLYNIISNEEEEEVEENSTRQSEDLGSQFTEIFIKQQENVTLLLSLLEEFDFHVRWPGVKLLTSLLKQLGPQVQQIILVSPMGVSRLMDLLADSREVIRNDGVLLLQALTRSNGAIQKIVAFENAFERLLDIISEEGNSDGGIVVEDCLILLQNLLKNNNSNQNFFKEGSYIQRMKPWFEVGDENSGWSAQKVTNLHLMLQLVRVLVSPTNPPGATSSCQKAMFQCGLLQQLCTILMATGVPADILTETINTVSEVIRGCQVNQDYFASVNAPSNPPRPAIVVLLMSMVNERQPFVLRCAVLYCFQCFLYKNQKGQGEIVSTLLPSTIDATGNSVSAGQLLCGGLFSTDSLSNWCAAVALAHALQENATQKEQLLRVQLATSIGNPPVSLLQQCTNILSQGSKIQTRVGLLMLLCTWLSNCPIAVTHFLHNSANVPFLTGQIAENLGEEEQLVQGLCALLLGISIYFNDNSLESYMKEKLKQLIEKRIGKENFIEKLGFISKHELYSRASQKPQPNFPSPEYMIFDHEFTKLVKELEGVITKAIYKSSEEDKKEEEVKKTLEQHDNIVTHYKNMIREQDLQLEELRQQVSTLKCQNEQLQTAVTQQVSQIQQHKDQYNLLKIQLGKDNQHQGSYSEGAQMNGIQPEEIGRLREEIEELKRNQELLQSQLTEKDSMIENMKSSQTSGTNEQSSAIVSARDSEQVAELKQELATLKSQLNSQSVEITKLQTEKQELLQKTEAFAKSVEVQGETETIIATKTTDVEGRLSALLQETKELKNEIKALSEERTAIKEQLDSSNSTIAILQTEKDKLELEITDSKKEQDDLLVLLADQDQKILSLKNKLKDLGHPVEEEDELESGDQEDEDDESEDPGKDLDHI

[1] = target: T2, His-SUMO-tagged CHC17 terminal domain (human, UniProt Q00610 1-364); test: pull-down; GST, GST-GGA2-HE or GST-p115 on glutathione beads, 12.5 µg purified His-bdSUMO-CHC17 TD in 250 µl CHC17 PD buffer for 60 min, immunoblot
T2 construct: CHC17 clathrin heavy chain, N-terminal domain (TD), residues 1-364; also called CHC17 TD; His-bdSUMO-CHC17 TD; source: E. coli Rosetta 2 pLysS, purified (HisTrap, size exclusion); not shown: His, N-terminal, kept; bdSUMO, N-terminal, kept
T2 sequence (looked up): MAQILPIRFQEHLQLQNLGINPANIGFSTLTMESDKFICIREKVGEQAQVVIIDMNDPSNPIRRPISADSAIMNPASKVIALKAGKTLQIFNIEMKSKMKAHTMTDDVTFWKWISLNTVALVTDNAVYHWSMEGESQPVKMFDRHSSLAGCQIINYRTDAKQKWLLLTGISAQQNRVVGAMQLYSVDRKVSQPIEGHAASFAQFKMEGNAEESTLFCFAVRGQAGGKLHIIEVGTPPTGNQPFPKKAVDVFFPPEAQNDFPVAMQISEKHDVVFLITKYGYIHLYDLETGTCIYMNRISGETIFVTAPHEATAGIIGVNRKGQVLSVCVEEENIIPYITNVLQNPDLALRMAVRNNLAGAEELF

[2] = target: B1; test: pull-down; GST, GST-GGA2-HE or GST-p115 on glutathione beads, 12.5 µg purified His-bdSUMO-CHC22 TD (WT or Chim) in 250 µl CHC22 PD buffer for 45 min, immunoblot
[3] = target: B4
[4] = target: T3, full-length GST-SNX5 phosphomimetic S226E mutant (human, UniProt Q9Y5X3 1-404, S226E)
T3 construct: sorting nexin 5, human, full-length (1-404) with phosphomimetic point mutation S226E in the BAR domain; The making of the mutant is not described; also called GST-SNX5 S226E; not shown: GST, N-terminal, kept
T3 sequence (looked up): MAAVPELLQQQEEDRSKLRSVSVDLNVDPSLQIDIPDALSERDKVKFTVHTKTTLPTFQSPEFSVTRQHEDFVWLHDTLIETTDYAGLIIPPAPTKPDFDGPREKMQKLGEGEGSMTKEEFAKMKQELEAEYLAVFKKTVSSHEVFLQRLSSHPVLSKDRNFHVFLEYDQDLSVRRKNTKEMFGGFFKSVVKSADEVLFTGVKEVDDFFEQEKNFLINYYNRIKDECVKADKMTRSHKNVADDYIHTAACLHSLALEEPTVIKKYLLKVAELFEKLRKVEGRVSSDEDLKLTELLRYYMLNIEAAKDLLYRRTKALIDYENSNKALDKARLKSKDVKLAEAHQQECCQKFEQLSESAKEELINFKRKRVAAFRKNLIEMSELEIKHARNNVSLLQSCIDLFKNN

full-length His-SNX1 = target: T4, full-length His-SNX1 (UniProt Q13596 1-522)
T4 construct: SNX1, full-length, residues 1-522, sub-cloned from a plasmid of the Cullen lab into pET15b; also called recombinant SNX1; source: E. coli BL21 (DE3), purified (HisTrap, size exclusion); not shown: 6xHis, N-terminal, kept

full-length His-p115 = target: T5, full-length His-p115 (UniProt O60763 1-962); test: pull-down; His-tagged bait on Ni-NTA HisPur beads, 15 µg purified GST-only or GST-SNX5 as prey in 250 µL His PD buffer for 45 min, immunoblot
T5 construct: p115, full-length, encoded by plasmid pIY119 (gift, Munro lab); not shown: 6xHis, N-terminal, kept
T5 sequence (looked up): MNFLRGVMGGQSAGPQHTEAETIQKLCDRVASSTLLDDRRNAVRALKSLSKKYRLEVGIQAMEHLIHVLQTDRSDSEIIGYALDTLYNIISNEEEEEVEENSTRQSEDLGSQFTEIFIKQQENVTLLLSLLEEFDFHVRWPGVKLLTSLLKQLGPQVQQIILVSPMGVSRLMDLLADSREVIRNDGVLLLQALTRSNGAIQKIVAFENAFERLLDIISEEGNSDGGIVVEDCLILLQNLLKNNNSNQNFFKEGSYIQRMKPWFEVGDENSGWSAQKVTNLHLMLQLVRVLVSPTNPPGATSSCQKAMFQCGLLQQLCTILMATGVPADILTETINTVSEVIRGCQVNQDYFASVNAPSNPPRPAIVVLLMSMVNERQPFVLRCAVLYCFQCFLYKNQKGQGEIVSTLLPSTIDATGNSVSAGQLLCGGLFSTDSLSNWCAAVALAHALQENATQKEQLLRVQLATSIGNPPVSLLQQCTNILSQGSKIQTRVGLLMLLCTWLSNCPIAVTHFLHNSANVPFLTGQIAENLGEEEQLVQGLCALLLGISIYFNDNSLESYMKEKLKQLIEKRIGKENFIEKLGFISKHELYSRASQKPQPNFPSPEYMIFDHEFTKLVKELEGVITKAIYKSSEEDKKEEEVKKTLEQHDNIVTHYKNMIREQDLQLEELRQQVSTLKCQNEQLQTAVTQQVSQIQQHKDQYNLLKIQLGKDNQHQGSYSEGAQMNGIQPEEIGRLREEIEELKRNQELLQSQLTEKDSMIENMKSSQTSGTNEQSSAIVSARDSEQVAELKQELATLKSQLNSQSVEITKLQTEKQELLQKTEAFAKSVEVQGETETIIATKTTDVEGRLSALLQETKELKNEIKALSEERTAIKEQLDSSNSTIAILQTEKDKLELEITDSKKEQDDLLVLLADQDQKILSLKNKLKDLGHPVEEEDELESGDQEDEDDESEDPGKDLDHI

His-tagged CHC22 Hub = target: T6, His-tagged CHC22 Hub (human, UniProt P53675 1074-1640); test: as above
T6 construct: CHC22 clathrin heavy chain, Hub domain (C-terminal third), residues 1074-1640; also called His-CHC22-Hub; not shown: 6xHis, N-terminal, kept
T6 sequence (looked up): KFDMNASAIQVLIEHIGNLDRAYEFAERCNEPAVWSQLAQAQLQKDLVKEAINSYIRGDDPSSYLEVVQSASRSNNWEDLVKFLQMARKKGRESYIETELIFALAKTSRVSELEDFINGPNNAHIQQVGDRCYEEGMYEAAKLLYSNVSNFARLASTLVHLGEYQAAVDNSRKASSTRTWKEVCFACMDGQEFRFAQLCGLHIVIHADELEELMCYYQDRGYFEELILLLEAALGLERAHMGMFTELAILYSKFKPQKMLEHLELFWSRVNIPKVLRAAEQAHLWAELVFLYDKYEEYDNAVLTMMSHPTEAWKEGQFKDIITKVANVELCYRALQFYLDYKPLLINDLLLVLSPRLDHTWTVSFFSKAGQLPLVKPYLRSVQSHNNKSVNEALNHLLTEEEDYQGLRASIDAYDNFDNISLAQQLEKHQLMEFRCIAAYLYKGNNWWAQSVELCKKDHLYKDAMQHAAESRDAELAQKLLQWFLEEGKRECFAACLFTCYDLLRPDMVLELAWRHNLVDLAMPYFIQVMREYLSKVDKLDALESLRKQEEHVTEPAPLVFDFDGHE

T4 sequence (Q13596 whole entry, the tested form may be a part): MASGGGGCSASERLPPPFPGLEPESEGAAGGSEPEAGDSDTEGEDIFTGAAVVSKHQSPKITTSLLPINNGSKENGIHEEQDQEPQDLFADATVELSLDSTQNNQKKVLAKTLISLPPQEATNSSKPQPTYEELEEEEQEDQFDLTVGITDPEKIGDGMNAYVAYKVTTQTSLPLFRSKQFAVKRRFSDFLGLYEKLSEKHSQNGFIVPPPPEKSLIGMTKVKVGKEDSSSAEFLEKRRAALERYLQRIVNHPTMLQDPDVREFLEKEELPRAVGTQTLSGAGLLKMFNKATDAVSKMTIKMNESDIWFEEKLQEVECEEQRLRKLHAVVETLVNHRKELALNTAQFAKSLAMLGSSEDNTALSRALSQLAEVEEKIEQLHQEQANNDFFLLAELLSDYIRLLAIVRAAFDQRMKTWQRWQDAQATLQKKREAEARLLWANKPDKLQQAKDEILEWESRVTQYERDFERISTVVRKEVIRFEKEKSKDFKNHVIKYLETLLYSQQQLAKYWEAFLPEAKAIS

Binder: B1
binding result (full-length GST-p115): binds

Binder: B4
binding result (full-length His-SNX1): binds
binding result (full-length His-p115): binds
binding result (His-tagged CHC22 Hub): binds

Further lines, results first:

binding result [1]: binds
binding result [2]: binds
B2: GST-GGA2-HE (domain or fragment, UniProt Q9UJY4 316-613, looked up)
chain: GRVTFGNRVTSSLGDIPVSRVFQNPAGCMKTCPLIDLEVDNGPAQMGTVVPSLLHQDLAALGISDAPVTGMVSGQNCCEEKRNPSSSTLPGGGVQNPSADRNLLDLLSAQPAPCPLNYVSQKSVPKEVPPGTKSSPGWSWEAGPLAPSPSSQNTPLAQVFVPLESVKPSSLPPLIVYDRNGFRILLHFSQTGAPGHPEVQVLLLTMMSTAPQPVWDIMFQVAVPKSMRVKLQPASSSKLPAFSPLMPPAVISQMLLLDNPHKEPIRLRYKLTFNQGGQPFSEVGEVKDFPDLAVLGAA
notes: GGA2, hinge-GAE (hinge-ear) fragment, residues 316-613; also called GGA2-hinge-GAE; hinge-ear fragment of GGA2; not shown: GST, N-terminal, kept

binding result [3]: binds
binding result [4]: binds
B3: His-tagged CHC22 TxD (domain or fragment, human, UniProt P53675 1521-1640, looked up)
chain: WAQSVELCKKDHLYKDAMQHAAESRDAELAQKLLQWFLEEGKRECFAACLFTCYDLLRPDMVLELAWRHNLVDLAMPYFIQVMREYLSKVDKLDALESLRKQEEHVTEPAPLVFDFDGHE
notes: CHC22 clathrin heavy chain, trimerization domain; methods give residues 1521-1640, the results 1520-1640; Limits told in two ways (1521-1640 in methods, 1520-1640 in results); also called His-22TxD; His-CHC22 TxD; source: E. coli BL21 (DE3), purified (HisTrap, size exclusion); not shown: 6xHis, N-terminal, kept
